Measurements reported in the supplement of paper PMC10567573.

B1: C10orf62 (parent)
chain: RALEEVEMKLQKNFLTQRENTIAG
B2: NETO1 (parent)
chain: GFSPIIGRFCGQQNPPVIKSSGRF

Variants of: B1
Experiment: protein stability index of a GFP-peptide fusion (GPS, HEK-293T) (PSI 1-6); higher = more stable
Settings: c terminus: a fixed tail appended
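Note: lentivirally expressed fusions sorted by FACS into six bins by GFP to DsRed ratio, PSI derived from sequencing read proportions per bin multiplied by bin number.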

Protein stability index, by site and new letter:
I22: C 3.92
E19: I 2.04; H 3.13
M8: H 4.23
G24: F 2.37
L10: E 5.17
A2: E 4.41

Variants of: B2
Experiment: as above
Settings: c terminus: a fixed tail appended

Protein stability index, by site and new letter:
F9: Q 2.38; G 1.97; A 2.87; Y 1.98; V 2.66; S 1.98; D 3.31; W 2.27; K 2.49; I 2.45; M 2.17; P 1.95; E 3.73; T 1.75; H 1.69; L 2.49; N 2.42; R 2.07; C 2.06
S21: D 1.82; M 2.18; P 2.25; Q 2.08; I 1.57; T 2.36; R 2.26; C 2.42; N 2.09; G 2.53; W 1.8; F 1.68; H 2.06; Y 2.36; V 2.15; K 2.22; L 1.75; E 2.22; A 2.88
I18: W 2.1; M 2.17; T 2.15; Q 2.78; G 2.24; E 2.61; D 2.73; L 2.17; F 1.95; R 3.13; H 1.76; P 2.92; A 2.7; Y 2.43; V 3.01; C 2.65; K 2.72; S 2.65; N 3.43
F24: G 3.51; A 2.42; C 2.48; S 3.88; D 2.98; E 2.76; W 1.6; K 3.64; T 2.65; V 2.42; Y 2.4; H 2.26; R 2.66; Q 3; N 2.64; I 2.23; L 3.69; M 1.97; P 2.51
R8: C 1.61; S 2.05; L 1.83; E 3.19; D 2.63; H 1.79; A 2.72; Y 1.83; N 2.04; T 2.18; K 2.19; M 1.76; G 2.16; V 2.23; W 1.93; F 1.62; Q 2.19; P 2.61; I 2.43
P16: K 2.03; L 1.59; G 1.85; V 2.26; D 2.1; E 2.58; Y 2.24; Q 1.69; R 2.32; M 2.16; C 2.02; F 1.85; H 2.18; T 2.23; N 1.73; S 2.05; W 1.32; I 1.86; A 2.03
N14: T 1.67; H 2.18; G 2.19; R 2.12; L 1.66; I 1.92; S 2.35; Q 3.08; Y 1.99; D 2.48; F 2.26; E 2.38; K 2.04; M 1.8; P 2.21; V 1.24; A 2.25; W 1.87
Q13: L 2.3; F 1.75; P 2.31; R 2.64; S 1.63; D 1.96; K 1.88; N 2.31; G 1.89; A 1.83; I 2.17; C 1.42; W 1.61; H 1.88; T 3.12; V 2.36; M 2.3; E 2.22; Y 2.22
K19: Q 1.42; F 1.69; V 1.48; G 3.23; T 1.94; H 1.64; Y 1.91; C 1.93; D 2.26; P 2.37; A 2.27; R 1.85; S 2.48; I 2.07; W 1.78; L 2.3; M 2.58; N 1.65; E 2.27
Q12: D 2.53; A 1.57; K 2.33; F 1.8; C 2.32; S 2.03; H 2.3; M 1.94; R 1.78; E 2.35; V 2.15; G 2.26; T 2.26; L 1.75; P 2.75; Y 2.01; I 2.16; N 2.35; W 1.72
V17: Y 2.12; T 2.05; H 2.08; N 2.5; D 2.75; M 2.88; L 1.66; S 2.3; G 2.62; F 1.66; A 2.04; Q 2.52; E 2.54; K 2.5; I 2.51; R 2.23; P 2.22; C 1.62; W 2.42
G11: T 2.58; L 2.31; F 2.03; N 2.17; K 1.91; A 2.01; V 2.36; W 2.26; S 2.38; C 1.6; M 1.51; D 2.76; Q 2.38; E 2.54; I 1.83; R 1.63; P 2.58; Y 1.89; H 1.91
C10: N 3.13; R 2.63; H 2.38; M 2.27; P 3.47; F 2.51; D 2.71; A 3.07; E 3.76; Y 2.42; K 2.93; S 2.9; V 2.46; L 2.79; T 3.29; Q 2.4; W 2.3; G 3.05; I 2.86
P15: G 2.79; Q 1.96; T 2.04; H 2.01; E 2.27; W 2.13; A 2.44; V 2.14; D 2.4; M 1.99; N 2.52; L 2.59; I 2.1; C 2.19; S 1.93; Y 2.1; K 1.99; R 1.65; F 2.34
G7: T 2.47; Y 1.64; S 2.3; W 1.42; V 1.83
G22: M 1.65; P 2.15; A 1.87; Y 2.1; Q 2.35; C 1.97; V 1.63; H 1.59; S 2; R 2.19; D 2.06; E 1.63; L 2.81; W 2.14; K 2.54; N 2.2; F 1.82; T 2.11; I 1.73
S20: D 1.55; Y 1.43; Q 2.67; C 2.18; K 2.65; G 1.9; V 1.68; W 1.99; L 2.59; M 1.66; N 2.45; R 2.44; H 2.16; I 1.58; A 2.67; T 1.88; F 2.26; E 2.11; P 2.45
R23: N 2.09; Q 1.56; S 1.94; I 1.65; F 1.89; H 1.76; E 2.04; K 2.44; A 1.35; T 1.64; M 1.96; D 2.3; G 1.67; C 1.44; P 3.38; Y 2.6; L 2.35; W 2.26; V 2.22
